The source of these data is paper PMC6993865 (Biochemical Journal, 2020).

“And” between values parts separate entries of the source, which are not always exact repeats. Equal entries are not always repeated.

The target of the assay is T1, chymotrypsin-treated recombinant P. falciparum SUB1 (P. falciparum, UniProt Q8I0V0 218-688).
T1 construct: subtilisin-like protease SUB1, P. falciparum, PF3D7_0507500; recombinant, chymotrypsin-treated; also called rPfSUB1; PfSUB1
T1 sequence: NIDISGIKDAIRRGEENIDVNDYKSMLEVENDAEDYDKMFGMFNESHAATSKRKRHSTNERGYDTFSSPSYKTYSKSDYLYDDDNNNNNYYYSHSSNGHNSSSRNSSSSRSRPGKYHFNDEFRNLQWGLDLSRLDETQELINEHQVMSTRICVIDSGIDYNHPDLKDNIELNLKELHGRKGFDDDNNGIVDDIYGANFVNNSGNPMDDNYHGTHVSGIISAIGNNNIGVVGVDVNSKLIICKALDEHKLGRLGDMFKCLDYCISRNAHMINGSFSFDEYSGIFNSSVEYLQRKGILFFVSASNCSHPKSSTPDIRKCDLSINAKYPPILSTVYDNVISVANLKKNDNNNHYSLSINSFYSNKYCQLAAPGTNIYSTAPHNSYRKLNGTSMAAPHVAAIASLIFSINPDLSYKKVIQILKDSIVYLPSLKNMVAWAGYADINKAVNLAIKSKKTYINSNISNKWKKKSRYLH
Put plainly: enzyme inhibition kinetics (fluorogenic peptide substrate); rSUB1-ProM (7.81-250 nM final) added to ongoing hydrolysis of SERA4st1F-6R12 (0.1 µM, well below Km) by rPfSUB1 (0.045 U in 100 µl); 25 mM Tris-HCl pH 8.2, 25 mM CHAPS, 12 mM CaCl2; 21°C; apparent tight-binding inhibition constant, Ki(app) ~ Ki. The following applies: both partners purified.

B1: recombinant Plasmodium falciparum SUB1-ProM (SUB1 propeptide mimic), GST-free (natural protein)
chain: QVTPAGTVLNSNSALISRRINRRKMKNCNNNDLLKVLKMETTYNELPAHNLLMSSKNDINKLFDYINKNEELSKLMNSCGTYVYLKYLGVVIFSIKENVQISHLSEFIQYLLNKNVCIEFNQNVML
notes: SUB1-ProM, P. falciparum 3D7, PF3D7_0507400, residues 28-153 of the 153-residue protein (lacks the predicted 27-residue signal peptide); synthetic gene; also called rSUB1-ProM; PfSUB1-ProM; source: E. coli BL21(R2), purified (Glutathione Sepharose 4B, PreScission cleavage, Superdex 200)
Regarding B1, the Ki is 5.67 nM and 5.34 nM.
